This is an account of results in publication PMC5378391, “Maltose binding protein-fusion enhances the bioactivity of truncated forms of pig myostatin propeptide produced in E. coli” (PLoS ONE, 2017).

Series [1] deals with Myostatin (MSTN) (UniProt O14793).
Series [2] has the same target. This is another data set of the same source.
Series [3] deals with Pro23-98 (MBP removed by factor Xa) (pig) (UniProt O18831). Put plainly: non-reducing SDS-PAGE; samples boiled in SDS loading buffer without beta-mercaptoethanol (unreduced) or with it (reduced); 15% gel, Coomassie blue; can show only disulfide-linked dimers.
Series [4] concerns the target T1, Myostatin (MSTN) (UniProt O14793 267-375).
T1 sequence (looked up): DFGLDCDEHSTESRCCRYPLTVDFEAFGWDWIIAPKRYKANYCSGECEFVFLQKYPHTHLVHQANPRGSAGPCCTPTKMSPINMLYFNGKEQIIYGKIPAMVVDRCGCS
Put plainly: cell-based or functional assay.

Series [5] concerns the molecule itself. Put plainly: non-reducing SDS-PAGE; samples boiled in SDS loading buffer without beta-mercaptoethanol (unreduced) or with it (reduced); 15% gel, Coomassie blue; can show only disulfide-linked dimers.

For “Pro42-175 (MBP removed by factor Xa) (from UniProt O18831 42-175) (domain or fragment)”, in the series with Myostatin (MSTN) [1], the IC50 to suppress 1 nM MSTN, (CAGA)12-luciferase reporter gene assay, after removal of MBP stood at 44.9 nM. Molecule “MBP-fused truncated pig MSTNpro containing residues 42-218 (from UniProt O18831 42-218) (domain or fragment)” showed an IC50 to suppress 1 nM MSTN activity, pGL3-(CAGA)12-luciferase reporter assay in HEK293 cells with Myostatin (MSTN) [2] of 3.3 nM. With “MBP-fused truncated pig MSTNpro containing residues 42-115 (from UniProt O18831 42-115) (domain or fragment)”, in the series with Myostatin (MSTN) [2], the IC50 to suppress 1 nM MSTN activity, pGL3-(CAGA)12-luciferase reporter assay in HEK293 cells amounted to 17.7 nM. With “MBP-fused truncated pig MSTNpro containing residues 42-175 (from UniProt O18831 42-175) (domain or fragment)”, the IC50 to suppress 1 nM MSTN activity, pGL3-(CAGA)12-luciferase reporter assay in HEK293 cells in the series with Myostatin (MSTN) [2] was determined as 2.7 nM.

In the series with Myostatin (MSTN) [2], “Full sequence MBP-fused pig MSTNpro (metalloproteinase-resistant mutant) (domain or fragment)” displayed an IC50 to suppress 1 nM MSTN activity, pGL3-(CAGA)12-luciferase reporter assay in HEK293 cells of 2.8 nM.

In general, stoichiometry N refers to a count of units in the complex or per binding partner. Consider “Pro23-98 (MBP removed by factor Xa) (from UniProt O18831 23-98) (domain or fragment)”, for which the stoichiometry N in series [3] came out at 2.

B1: MBP-fused truncated pig MSTNpro containing residues 42-98 (domain or fragment, UniProt O18831 42-98, looked up)
chain: CMWRQNTKSSRLEAIKIQILSKLRLETAPNISKDAIRQLLPKAPPLRELIDQYDVQR
For B1, the “IC50 to suppress 1 nM MSTN activity, pGL3-(CAGA)12-luciferase reporter assay in HEK293 cells” value with Myostatin (MSTN) [4] was found to be 24.1 nM.

B2: Pro42-98 (MBP removed by factor Xa) (domain or fragment, pig, UniProt O18831 42-98, looked up)
chain: CMWRQNTKSSRLEAIKIQILSKLRLETAPNISKDAIRQLLPKAPPLRELIDQYDVQR
notes: Pig myostatin propeptide (MSTNpro), residues 42-98; Derived from m4; also called MBP-removed MSTNpro domain containing residues 42-98; source: E. coli K12TB1; MBP-Pro42-98 digested with factor Xa, soluble fraction of the digest / Superdex 75 fraction f16; not shown: MBP, N-terminal, cleaved
For B2, the “stoichiometry N” value in series [5] was found to be 2.
